Reference: publication PMC7157747

Target: Recombinant Surface Immunogenic Protein (rSIP) of Group B Streptococcus, expressed in E. coli (Group B Streptococcus (GBS), serotype III)
Experiment: SEC; Size exclusion chromatography by HPLC of purified rSIP; PSS-pro kit as standard curve for molecular mass; 6 M urea used as monomer control

Substance: Recombinant Surface Immunogenic Protein (rSIP) of Group B Streptococcus, expressed in E. coli (natural protein)
- stoichiometry N: 2
